Measured values as given in patent US12356911B2, “Group of UDP-glycosyltransferase for catalyzing carbohydrate chain elongation and application thereof” (GSYNBIOT (SHANGHAI) CO., LTD, priority 2017, dated 2025).
Where a chain is given by its changes, count along the chain named.

B1: GT29-19: Ginseng UDP-glycosyltransferase, 442 amino acids, SEQ ID NO: 116 (protein)
chain: MDNQEGRISIALLPFLAHGHISPFFELAKQLAKRNCNVFLCSTPINLSSIKNKDSSASIKLVELHLPSSPDLPPHYHTTNGLPSHLMVPLINAFETAGPTFSEILKTLNPDLLIYDFNPSWAPEIASSHNIPAVYFLTTAAASSSIGLHAFKNPGEKYPFPDFYDNSNNTPEPPSADNMKLLHDFIACFERSCDIILIKSFIELEGKYIDLLSTLSDKTLVPVGPLVQDPMGHNEDPKTEQIINWLDKRAESTVVFVCFGSEYFLSNEELEEVAIGLEISMVNFIWAVRLIEGEKKGVLPEGFVQRVGDRGLVVEGWAPQARILGHSSTGGFVSHCGWSSITESMKFGVPVIAMARHFDQPLNAKLAAEVGVGMEVVRDENGKYKREDIAGVIRKVVVEKSGEVIRRKARELSEKMKEIGEQLIDRAVEELVQICKKKKDEQ
modifications: misc_feature - GT29-19; Panax ginseng
B2: GT29-20: Ginseng UDP-glycosyltransferase, 442 amino acids, SEQ ID NO: 118 (protein)
chain: MDNQKGRISIALLPFLAHGHISPFFELAKQLAKRNCNVFLCSTPINLSSIKDKDSSASIKLVELHLPSSPDLPPHYHTTNGLPSHLMLPLRNAFETAGPTFSEILKTLNPDLLIYDFNPSWAPEIASSHNIPAVYFLTTAAASSSIGLHAFKNPGEKYPFPDFYDNSNITPEPPSADNMKLLHDFIACFERSCDIILIKSFRELEGKYIDLLSTLSDKTLVPVGPLVQDPMGHNEDPKTEQIINWLDKRAESTVVFVCFGSEYFLSNEELEEVAIGLEISTVNFIWAVRLIEGEKKGILPEGFVQRAGDRGLVVEGWAPQARILGHSSTGGFVSHCGWSSIAESMKFGVPVIAMARHLDQPLNGKLAAEVGVGMEVVRDENGKYKREGIAEVIRKVVVEKSGEVIRRKARELSEKMKEKGEQEIDRALEELVQICKKKKDEQ
modifications: misc_feature - GT29-20; Panax ginseng
B3: GT29-21: Ginseng UDP-glycosyltransferase, 442 amino acids, SEQ ID NO: 120 (protein)
chain: B2 chain with H18N, A307V, T329I
modifications: misc_feature - GT29-21; Panax ginseng
B4: GT29-5: Ginseng UDP-glycosyltransferase, 446 amino acids, SEQ ID NO: 14 (protein)
chain: MDNQKGRISIVMLPFLAHGHISPFFELAKHLSKRNCNIFLCSTPINLSSIKNRISDKDSSASIKLVELHLPSSPDLPPHYHTTNGLPSHLMVPLRNAFETAAPTFSEILKTLNPDLLIYDFNPSWAPEIASSHNIPAVCFIIGGAASFSMSLHSFKNPGEKYPFLDFDDNSNITPEPPSADNMKLLLDFMTCFERSCDIILIKSFRELEGKYIDLLSTLSDKTLVPVGPLVQDPMGHNEDPKTEQIINWLDKRAESTVVFVCFGSEYFLSNEELEEVAIGLEISMVNFIWAVRLIEGEKKGVLPEGFVQRVGDRGLVVEGWAPQARILGHSSTGGFVSHCGWSSIAESMKFGVPVIAMARHLDQPLNGKLAAEVGVGMEVVRDENGKYKREGIAEVIRKVVVEKSGEVIRRKARELSEKMKEIGEQLIDRAVEELVQICKKKKDEQ
modifications: misc_feature - GT29-5; Panax ginseng
B5: GT29-13: Ginseng UDP-glycosyltransferase, 446 amino acids, SEQ ID NO: 22 (protein)
chain: B4 chain with I213F, L215F, L216Y, I246F, A346T, L362F, G368A, G377V, G392D, E395G
modifications: misc_feature - GT29-13; Panax ginseng
B6: GT29-9: Ginseng UDP-glycosyltransferase, 446 amino acids, SEQ ID NO: 18 (protein)
chain: B4 chain with I213F, L215F, L216Y, I246F, G392D, E395G
modifications: misc_feature - GT29-9; Panax ginseng
B7: GT29-17: Ginseng UDP-glycosyltransferase, 442 amino acids, SEQ ID NO: 24 (protein)
chain: MDNQEGRISIALLPFLAHGHISPFFELAKQLAKRNCNVFLCSTPINLSSIKNKDSSASIKLVELHLPSSPDLPPHYHTTNGLPSHLMVPLINAFETAGPTFSEILKTLNPDLLIYDFNPSWAPEIASSHNIPAVCFIIGGAASFSMSLHSFKNPGEKYPFLDFDDNSNITPEPPSADNMKLLLDFMTCFERSCDIILIKSFRELEGKYFDFYSTLSDKTLVPVGPLVQDPMGHNEDPKTEQFINWLDKRAESTVVFVCFGSEYFLSNEELEEVAIGLEISMVNFIWAVRLIEGEKKGVLPEGFVQRVGDRGLVVEGWAPQARILGHSSTGGFVSHCGWSSITESMKFGVPVIAMARHFDQPLNAKLAAEVGVGMEVVRDENGKYKREDIAGVIRKVVVEKSGEVIRRKARELSEKMKEIGEQLIDRAVEELVQICKKKKDEQ
modifications: misc_feature - GT29-17; Panax ginseng
B8: GT29-11: Ginseng UDP-glycosyltransferase, 446 amino acids, SEQ ID NO: 20 (protein)
chain: MDNQKGRISIVMLPFLAHGHISPFFELAKHLSKRNCNIFLCSTPINLSSIKNRISDKDSSASIKLVELHLPSSPDLPPHYHTTNGLPSHLMVPLINAFETAGPTFSEILKTLNPDLLIYDFNPSWAPEIASSHNIPAVYFLTTAAASSSIGLHAFKNPGEKYPFPDFYDNSNNTPEPPSADNMKLLHDFIACFERSCDIILIKSFIELEGKYIDLLSTLSDKTLVPVGPLVQDPMGHNEDPKTEQIINWLDKRAESTVVFVCFGSEYFLSNEELEEVAIGLEISMVNFIWAVRLIEGEKKGVLPEGFVQRVGDRGLVVEGWAPQARILGHSSTGGFVSHCGWSSIAESMKFGVPVIAMARHLDQPLNGKLAAEVGVGMEVVRDENGKYKREGIAEVIRKVVVEKSGEVMRRKARELSEKMKEKGEEEIDRAVEELVQICKKKKDAQ
modifications: misc_feature - GT29-11; Panax ginseng
B9: GT29-18: Ginseng UDP-glycosyltransferase, 446 amino acids, SEQ ID NO: 26 (protein)
chain: MDNQKGRISIVMLPFLAHGHISPFFELAKHLSKRNCNIFLCSTPINLSSIKNRISDKDSSASIKLVELHLPSSPDLPPHYHTTNGLPSHLMVPLRNAFETAAPTFSEILKTLNPDLLIYDFNPSWAPEIASSHNIPAVCFIIGGAASFSMSLHSFKNPGEKYPFLDFDDNSNITPEPPSADNMKLLLDFMTCFERSCDIILIKSFRELEGKYFDFYSTLSDKTLVPVGPLVQDPMGHNEDPKTEQFINWLDKRAESTVVFVCFGSEYFLSNEELEEVAIGLEISMVNFIWAVRLIEGEKKGVLPEGFVQRVGDRGLVVEGWAPQARILGHSSTGGFVSHCGWSSITESMKFGVPVIAMARHFDQPLNAKLAAEVGVGMEVVRDENGKYKREDIAGVIRKVVVEKSGEVMRRKARELSEKMKEKGEEEIDRAVEELVQICKKKKDAQ
modifications: misc_feature - GT29-18; Panax ginseng
B10: GT29-7: Ginseng UDP-glycosyltransferase, 446 amino acids, SEQ ID NO: 16 (protein)
chain: MDNQKGRISIALLPFLAHGHISPFFELAKQLAKRNCNVFLCSTPINLSSIKNRVSDKDSSASIKLVELHLPSSPDLPPHYHTTNGLPSHLMIPLRNAFDTAGPTFSEILKTLNPDLLIYDFNPSWAPEIASSHNIPAVCFIIGGAASSSMSLHSFKNPGEKYPFLDFDDNSNITPEPPSADNMKLLINFMTCFERSCDIILIKSFRELEGKYFDFFSTLSDKTLVPVGPLVQDPMGHNEDPKTEQFINWLDKRAESTVVFVCFGSECFLSNEELEEVAIGLEISMVNFIWAVRLIEGEKKGVLPEGFVQRVGDRGLVVEEWAPQARILGHSSTGGFVSHCGWNSITESMKFGVPVIAMARHFDQPLNGKLAAEVGVGMEVVRDENGKYKREGIAEVIRKVVVEKSGEVIRRKARELSEKMKEKGEQEIDRVVEELVQICKKKKDEQ
modifications: misc_feature - GT29-7; Panax ginseng

Assay: In vitro transglycosylation at C-3, Rd as glycosyl acceptor, UDP-xylose as donor
Assay type: biochemical
Settings: crude enzyme (E. coli lysate supernatant); TLC, FIG. 14

Molecule	product formation from Rd and UDP-xylose (replacement of second glucose at C-3 with xylose)
B1	can all catalyze the replacement of the second glucose at C-3 position of Rd with xylose
B2	can all catalyze the replacement of the second glucose at C-3 position of Rd with xylose
B3	can all catalyze the replacement of the second glucose at C-3 position of Rd with xylose

Assay: In vitro transglycosylation at C-3, Rh2 as glycosyl acceptor, UDP-glucose as donor
Assay type: biochemical
Settings: crude enzyme (E. coli lysate supernatant); TLC, FIG. 13, FIG. 15
Excerpt: Cell lysate of recombinant E. coli with empty vector pET28a was used as a control.

Molecule	product formation from Rh2 and UDP-glucose (Rg3)
B1	can all catalyze the extension of a glucosyl at the C-3 glycosyl of Rh2 to generate Rg3
B2	can all catalyze the extension of a glucosyl at the C-3 glycosyl of Rh2 to generate Rg3
B3	can all catalyze the extension of a glucosyl at the C-3 glycosyl of Rh2 to generate Rg3

Assay: In vitro transglycosylation at C-6, Rg1 as glycosyl acceptor, UDP-xylose as donor
Assay type: biochemical
Settings: crude enzyme (E. coli lysate supernatant); TLC and HPLC, FIG. 7-9

Molecule	product formation from Rg1 and UDP-xylose (notoginsenoside R1)
B4	can catalyze the formation of Notoginsenoside RI
B5	can catalyze the formation of Notoginsenoside RI
B6	can catalyze the formation of Notoginsenoside RI
B7	can catalyze the formation of Notoginsenoside RI
B8	can catalyze the formation of Notoginsenoside RI
B9	can catalyze the formation of Notoginsenoside RI
B10	can catalyze the formation of Notoginsenoside RI
